Experimental data reported in PMC12808100, “The non-catalytic DNA polymerase ε subunit is an NPF motif recognition protein” (Nature Communications, 2025).
pKd: −log10 of the molar value.

Assays:
[1] = molecular target: NPF motif peptide of DONSON (residues 71-88); experiment: native holdup (nHU) titration with dot blot; DONSON_71-88-saturated streptavidin resin mixed with control resin at various proportions; extracts of HEK293T cells expressing HA-tagged POLE2 variants; 4 °C, 2 h; depletion quantified with an antibody against the HA tag; apparent
[2] = molecular target: non-catalytic subunit of DNA polymerase ε (POLE2), endogenous (human (endogenous in Jurkat)) (UniProt P56282); experiment: native holdup (nHU) with mass spectrometry; estimate from the difference between the depletion of POLE and of POLE2 by the same NPF motif bait, with about 1 nM of each assumed in the extract; apparent
non-catalytic subunit of DNA polymerase ε (POLE2), endogenous (human (endogenous in Jurkat)), sequence (P56282 whole entry): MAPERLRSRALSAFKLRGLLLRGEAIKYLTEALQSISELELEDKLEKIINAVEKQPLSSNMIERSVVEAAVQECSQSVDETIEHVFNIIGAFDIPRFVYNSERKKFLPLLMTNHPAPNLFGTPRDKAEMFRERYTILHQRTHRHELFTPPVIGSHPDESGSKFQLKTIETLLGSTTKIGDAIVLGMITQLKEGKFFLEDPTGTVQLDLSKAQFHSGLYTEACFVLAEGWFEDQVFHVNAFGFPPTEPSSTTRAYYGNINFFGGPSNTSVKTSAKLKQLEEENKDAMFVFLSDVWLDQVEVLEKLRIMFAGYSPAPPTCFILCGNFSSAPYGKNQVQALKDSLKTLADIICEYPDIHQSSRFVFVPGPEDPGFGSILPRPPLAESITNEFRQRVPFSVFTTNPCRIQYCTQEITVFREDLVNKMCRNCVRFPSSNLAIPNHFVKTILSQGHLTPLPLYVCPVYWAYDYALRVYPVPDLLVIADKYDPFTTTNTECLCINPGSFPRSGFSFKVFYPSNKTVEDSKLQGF

catalytic subunit of DNA polymerase ε (POLE), endogenous, sequence (Q07864 whole entry): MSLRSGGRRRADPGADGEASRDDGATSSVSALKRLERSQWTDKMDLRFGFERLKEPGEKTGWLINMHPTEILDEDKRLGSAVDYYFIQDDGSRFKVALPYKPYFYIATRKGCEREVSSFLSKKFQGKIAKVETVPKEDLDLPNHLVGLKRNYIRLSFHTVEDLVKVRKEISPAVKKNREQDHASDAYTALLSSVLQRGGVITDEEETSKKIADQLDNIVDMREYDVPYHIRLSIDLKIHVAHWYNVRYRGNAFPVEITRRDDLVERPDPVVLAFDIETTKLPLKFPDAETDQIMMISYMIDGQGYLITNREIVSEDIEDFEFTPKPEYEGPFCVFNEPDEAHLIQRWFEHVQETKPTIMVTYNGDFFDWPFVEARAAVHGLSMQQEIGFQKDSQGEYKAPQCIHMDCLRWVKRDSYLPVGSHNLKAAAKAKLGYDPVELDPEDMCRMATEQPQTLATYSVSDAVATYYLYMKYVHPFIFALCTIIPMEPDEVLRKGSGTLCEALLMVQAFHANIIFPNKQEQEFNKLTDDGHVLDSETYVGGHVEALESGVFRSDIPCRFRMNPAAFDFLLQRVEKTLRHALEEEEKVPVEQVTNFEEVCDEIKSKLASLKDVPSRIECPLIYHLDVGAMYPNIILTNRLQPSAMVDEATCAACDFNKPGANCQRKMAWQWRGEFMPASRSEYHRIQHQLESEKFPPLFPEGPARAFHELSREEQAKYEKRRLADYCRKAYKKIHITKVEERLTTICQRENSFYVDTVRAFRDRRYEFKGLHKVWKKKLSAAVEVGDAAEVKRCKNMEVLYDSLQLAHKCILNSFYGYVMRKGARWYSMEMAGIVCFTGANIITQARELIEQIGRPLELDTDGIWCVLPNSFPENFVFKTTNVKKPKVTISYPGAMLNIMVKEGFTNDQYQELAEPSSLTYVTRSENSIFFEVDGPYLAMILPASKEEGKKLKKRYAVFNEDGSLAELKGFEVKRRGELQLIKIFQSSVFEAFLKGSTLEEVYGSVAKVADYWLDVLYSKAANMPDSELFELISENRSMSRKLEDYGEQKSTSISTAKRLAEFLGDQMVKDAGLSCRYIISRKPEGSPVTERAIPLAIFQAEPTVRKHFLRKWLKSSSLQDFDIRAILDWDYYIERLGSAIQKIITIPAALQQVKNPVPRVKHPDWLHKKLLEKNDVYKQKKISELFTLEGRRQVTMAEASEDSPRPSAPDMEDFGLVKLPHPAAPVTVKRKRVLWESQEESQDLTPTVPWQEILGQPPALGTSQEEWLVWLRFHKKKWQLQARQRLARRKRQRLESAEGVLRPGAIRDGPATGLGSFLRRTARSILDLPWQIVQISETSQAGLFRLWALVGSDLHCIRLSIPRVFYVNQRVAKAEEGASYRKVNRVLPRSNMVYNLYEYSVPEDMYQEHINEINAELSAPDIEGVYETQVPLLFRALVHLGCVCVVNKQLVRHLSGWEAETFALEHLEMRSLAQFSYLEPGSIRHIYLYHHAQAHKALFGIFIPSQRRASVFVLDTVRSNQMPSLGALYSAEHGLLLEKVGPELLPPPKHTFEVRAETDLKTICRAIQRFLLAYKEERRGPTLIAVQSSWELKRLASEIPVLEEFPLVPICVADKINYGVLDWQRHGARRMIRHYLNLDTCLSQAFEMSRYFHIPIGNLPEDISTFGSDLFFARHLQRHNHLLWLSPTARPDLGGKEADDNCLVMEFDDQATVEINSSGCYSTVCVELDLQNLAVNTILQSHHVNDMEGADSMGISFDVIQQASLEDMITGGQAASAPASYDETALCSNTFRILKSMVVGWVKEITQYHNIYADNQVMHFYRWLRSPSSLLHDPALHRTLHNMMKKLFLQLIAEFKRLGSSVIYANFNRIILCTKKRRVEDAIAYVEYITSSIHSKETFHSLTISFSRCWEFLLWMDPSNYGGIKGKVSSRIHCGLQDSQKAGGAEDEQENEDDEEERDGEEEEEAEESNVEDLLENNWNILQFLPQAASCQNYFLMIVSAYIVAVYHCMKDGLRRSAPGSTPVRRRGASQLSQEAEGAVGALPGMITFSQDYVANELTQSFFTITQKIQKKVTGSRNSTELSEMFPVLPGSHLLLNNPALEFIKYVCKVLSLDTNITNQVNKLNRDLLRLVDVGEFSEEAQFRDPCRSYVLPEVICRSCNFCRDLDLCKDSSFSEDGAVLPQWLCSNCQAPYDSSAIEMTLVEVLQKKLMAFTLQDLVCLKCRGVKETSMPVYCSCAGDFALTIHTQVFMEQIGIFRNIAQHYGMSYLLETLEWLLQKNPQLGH
HA-MBP-POLE2, sequence (P56282 whole entry): as the sequence (P56282 whole entry) above

Substance | fold weaker binding than HA-POLE2 [1] [fold] | pKd [2]
HA-MBP-POLE2 (from UniProt P56282 1-527) (natural protein) | 10 | 
catalytic subunit of DNA polymerase ε (POLE), endogenous (from UniProt Q07864 1-2286) (natural protein) |  | 9.52 to 10.00
